Where “and” joins values, the source holds several entries; their conditions need not be identical. Equal values may be shown once.
Tests used:
Format in all cases: biochemical
[1] = target: T1, proteinase K (Parengyodontium album, UniProt P06873); assay: Indirect linked assay: proteinase K inhibition read out by reverse transcriptase real time PCR of Xeno RNA template (Cells-to-CT kit); settings: for proteinase K inhibitory activity: all concentrations tested; for Ct (cycle threshold): all concentrations tested (1 mM to 0.05 mM), no Xeno RNA detected; for lowest concentration in the stopped mixture with inhibitory activity for proteinase K: Example 2, FIG. 1, tested 1 mM to 0.05 mM in stopped mixture
T1 sequence (P06873 106-384): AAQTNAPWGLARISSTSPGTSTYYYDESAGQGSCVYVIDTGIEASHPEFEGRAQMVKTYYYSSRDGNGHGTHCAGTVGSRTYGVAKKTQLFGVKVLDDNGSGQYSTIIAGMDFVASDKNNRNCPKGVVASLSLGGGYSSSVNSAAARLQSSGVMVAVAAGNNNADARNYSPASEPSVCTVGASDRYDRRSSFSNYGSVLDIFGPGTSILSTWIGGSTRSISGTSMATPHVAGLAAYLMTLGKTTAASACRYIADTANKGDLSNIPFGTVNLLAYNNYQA
Excerpt: The present example provides for inhibition of proteinase K in the context of preparing samples for nucleic acid detection. Said preparation of samples is described by pending U.S. patent application Ser. No. 12/122,274 filed May 16, 2008 entitled “Sample Preparation for In Situ Nucleic Acid Analysis, Methods and Compositions Therefor,” hereby incorporated by reference in its entirety. Embodiments of said patent application provide a process for preparing a sample containing RNA for in situ analysis of RNA or a surrogate thereof. In some embodiments, the process comprises contacting the sample containing RNA with a lysis mixture comprising a polypeptide having protease activity under conditions and for a time to produce a lysate, and admixing at least a portion of the lysate with a stop mixture that comprises an inhibitor of the polypeptide having protease activity at substantially the same temperature as the contacting step to form a stopped mixture. The resultant stopped mixture is preferably compatible with in situ reverse transcriptase and DNA polymerase reactions.
Methoxysuccinyl tetrapeptide chloromethylketone compounds synthesized as set forth in Example 1 herein were analyzed for inhibitory activity of proteinase K in such stopped mixtures as described below. Functional validation for the nucleic acid detection system using inhibitors of embodiments herein was carried out by measuring mRNA levels in biological samples using the TaqMan® Gene Expression Cells-to-CT™ Kit and the TaqMan® Cells-to-CT™ Control Kit (Applied Biosystems, Foster City, Calif.). MicroAmp® optical 96-well reaction plates were purchased from Applied Biosystems. Disposable reagent reservoirs were purchased from VistaLab Technologies, Inc (Mt. Kisco, N.Y.). Reverse transcription (RT) reactions were performed at 37° C. for 60 min, 95° C. for 5 min, and cooled to 4° C. by using GeneAmp® PCR systems 9700 (Applied Biosystems). Real time PCR was performed by using 7500 Fast Real-Time PCR System. (Applied Biosystems).
The present indirect linked assay measures the amount of inhibition of proteinase K activity by assaying reverse transcriptase real time PCR amplification of a template, which amplification is dependent upon reverse transcriptase activity.
Stop solutions (100 μl) contained the following reagents (10× concentration):
Test inhibitor, 11 mM (final concentration when diluted into stopped mixture is 1 mM). Test inhibitor was also used at concentrations such that, when diluted with a lysis mixture to form a stopped mixture as described below, the final concentration of inhibitor in the stopped mixture was 0.75 mM, 0.5 mM, 0.25 mM, 0.10 mM, 0.05 mM and 0 mM (control).
Proteinase K lysis solution (50 μL (no added DNase)) from the TaqMan® gene expression Cells-to-CT™ kit (Applied Biosystems) was aliquoted into 18 tubes. To the test samples (these are a working equivalent to lysis mixtures in the Cells-to-CT™ workflow), stop solution (5 μL) was added; the tubes were mixed and held for 2 min at room temperature. For the control reactions, 50 μl of proteinase K buffer was mixed with 5 μl of stop mix without inhibitor and the resulting reaction mixture was heated at 95° C. for 10 min to thermally inactivate the proteinase K reaction. Next, reverse transcription reagents were prepared, i.e. 15 μL 2×RT buffer, and 1.5 μL of 20×RT enzyme mix, were aliquoted and mixed in the wells of a 96 well plate. To this RT solution, 13.5 μL of each proteinase K containing stopped mixture was added and the solution was mixed well. The resulting mixtures were incubated at room temperature for 1 hr for residual proteinase K activity to degrade the RT enzyme. After 1 hr incubation at room temperature, 1 μL of Xeno™ RNA Control template (Applied Biosystems P/N 4386995 diluted to 25,000 copies/μL in 10 ng/μL poly A) was added to all wells except for the no template control wells. […]

[2] = target: T1, proteinase K; assay: Detection of β-actin RNA in HeLa cell lysates after stop solution (in vitro validation); settings: FIG. 6; ~10,000 HeLa cells lysed, β-actin RT-PCR
Method: HeLa cells (˜10,000 cells) were lysed in 50 μl lysis solution for 5 minutes at room temperature. Stop solution (5 μl) was then added; the lysate-stop solution was mixed, and incubated for 2 minutes at room temperature. A volume of 10 μl of stopped lysate was added to a 50 μl RT reaction followed by addition of 4 μl of RT reaction into a 20 μl PCR reaction using the β-actin primers/probe of the TaqMan® Gene Expression Cells-to-CT™ Kit (Applied Biosystems).

[3] = target: T1, proteinase K; assay: Direct assay: residual proteinase K activity on BSA substrate, precast SDS protein gel
Method: For the precast SDS denaturing protein gel analysis data of FIG. 3, proteinase K (50 μl of 100 μg/ml) lysis mixture without DNase (as for Example 2) was mixed with 5 μl of stop solution with varying amounts of MeOSuc-AAPF-CH2Cl (SEQ ID NO:5) and incubated for 10 min at room temperature. Ultrapure BSA (10 μl of 5 mg/ml, Applied Biosystems) was added to each sample and the samples were held for 10 min at room temperature. The reaction mixture was heated for 30 min at 95° C. and analyzed using precast protein gels (BIO-RAD, Hercules, Calif.). From the 65 μl of total reaction mixture, 10 μl reaction mixture was mixed with 5 μl of gel loading dye and further heated at 95° C. for 5 min. Then, the reactions were kept on ice for 2 min and loaded on the gel. Control reactions, with and without BSA, were also carried out. […]
The precast protein gel was run at 120 V for 1 h using 1× Tris/glycine/SDS buffer (BIO-RAD, Hercules, Calif.). […] The gel was analyzed using AlphaEase™ FC software (Alpha Innotech, San Leandro, Calif.). […]
Proteinase K (50 μl of 100 μg/ml) lysis mixture without DNase (as for Example 2) was mixed with 5 μl of stop solution with varying amounts of MeOSuc-AAAPL-CH2Cl (SEQ ID NO:7) and incubated for 10 min at room temperature. […] The reaction mixture was heated for 30 min at 95° C. and analyzed using precast protein gels (BIO-RAD, Hercules, Calif.). […]

[4] = target: T1, proteinase K; assay: Direct assay: residual proteinase K activity on BSA substrate, Protein 80 Bioanalyzer chip; settings: FIG. 2
Method: A direct assay for inhibition of proteinase K activity by MeOSuc-AAPF-CH2Cl (SEQ ID NO:5) was carried out using bovine serum albumin (BSA) as substrate and analyzing products using each Bioanalyzer chips and precast protein gels. Such direct assays were carried out to separate inhibition of proteinase K by a test inhibitor from any effects the stopped mixture may have on an RT-PCR reaction.
The reaction mixtures included the proteinase K solution (50 μL, 100 μg/ml) mixed with 5 μL of stop solution having varying amounts of tetrapeptide, MeOSuc-AAPF-CH2Cl (SEQ ID NO:5), as for Example 2. Incubation was for 10 min at room temperature. To assay for proteinase K activity, ultrapure BSA (12 μL of 50 mg/ml) was added to each sample and the samples were held for 10 min at room temperature. Resultant mixtures were heated for 30 min at 95° C. and analyzed using a Protein 80 Bioanalyzer chip (2100 Bioanalyzer, Agilent, Santa Clara, Calif.). The Bioanalyzer protein gel data is provided in FIG. 2, in which intact Ultrapure BSA (Applied Biosystems) is at about 70 kDa, and proteinase K is at about 35 kDa. The lanes of FIG. 2 are labeled as follows from left to right: Ladder; BSA only; No BSA (proteinase K only); MeOSuc-AAPF-CH2Cl (SEQ ID NO:5) in the stopped mixture at 1 mM, 0.75 mM, 0.5 mM, 0.25 mM, 0.125 mM, and 0 mM.

MeOSuc-AlaAlaAlaProPhe-CH2Cl (AAAPF; HELM PEPTIDE1{[COC(=O)CCC(=O)[*:2]].A.A.A.P.F.[ClC[*:1]]}$$$$V2.0; SMILES COC(=O)CCC(=O)N[C@@H](C)C(=O)N[C@@H](C)C(=O)N[C@@H](C)C(=O)N1CCC[C@H]1C(=O)N[C@@H](Cc1ccccc1)C(=O)CCl) [MeOSuc-AAAPF-CH2Cl]
concentration required to achieve the same level of inhibition as MeOSuc-AAPF-CH2Cl at 0.05 mM ([1]; FIG. 5 compared to FIG. 1): 0.1 mM
concentration providing effective inhibition of proteinase K [2]: about 0.1 mM

methoxysuccinyl-AAAPL-chloromethyl ketone (HELM PEPTIDE1{[COC(=O)CCC(=O)[*:2]].A.A.A.P.L.[ClC[*:1]]}$$$$V2.0; SMILES COC(=O)CCC(=O)N[C@@H](C)C(=O)N[C@@H](C)C(=O)N[C@@H](C)C(=O)N1CCC[C@H]1C(=O)N[C@@H](CC(C)C)C(=O)CCl) [MeOSuc-AAAPL-CH2Cl]
lowest concentration in the stopped mixture inhibitory for proteinase K activity ([1]; Example 6, FIG. 5, tested 1 mM to 0.05 mM): about 0.05 mM
lowest concentration capable of inhibiting proteinase K (BSA present in gel lane) ([3]; FIG. 7, tested 1 mM to 0.05 mM in stopped mixture): 0.1 mM and 0.10 mM
concentration providing effective inhibition of proteinase K [2]: about 0.1 mM

methoxysuccinyl-AAPL-chloromethyl ketone (HELM PEPTIDE1{[COC(=O)CCC(=O)[*:2]].A.A.P.L.[ClC[*:1]]}$$$$V2.0; SMILES COC(=O)CCC(=O)N[C@@H](C)C(=O)N[C@@H](C)C(=O)N1CCC[C@H]1C(=O)N[C@@H](CC(C)C)C(=O)CCl) [MeOSuc-AAPL-CH2Cl]
concentration providing effective inhibition of proteinase K [2]: about 0.1 mM

methoxysuccinyl-APAF-chloromethyl ketone (HELM PEPTIDE1{[COC(=O)CCC(=O)[*:2]].A.P.A.F.[ClC[*:1]]}$$$$V2.0; SMILES COC(=O)CCC(=O)N[C@@H](C)C(=O)N1CCC[C@H]1C(=O)N[C@@H](C)C(=O)N[C@@H](Cc1ccccc1)C(=O)CCl) [MeOSuc-APAF-CH2Cl]
proteinase K inhibitory activity ([1]; FIG. 1): inactive at all concentrations tested
Ct (cycle threshold) ([1]; FIG. 1): 40

MeOSuc-AlaAlaAlaProVal-CH2Cl (AAAPV; HELM PEPTIDE1{[COC(=O)CCC(=O)[*:2]].A.A.A.P.V.[ClC[*:1]]}$$$$V2.0; SMILES COC(=O)CCC(=O)N[C@@H](C)C(=O)N[C@@H](C)C(=O)N[C@@H](C)C(=O)N1CCC[C@H]1C(=O)N[C@H](C(=O)CCl)C(C)C) [MeOSuc-AAAPV-CH2Cl]
concentration required to achieve the same level of inhibition as MeOSuc-AAPV-CH2Cl at 0.25 mM ([1]; FIG. 5): 0.75 mM
concentration providing effective inhibition of proteinase K [2]: 0.5 mM

methoxysuccinyl-APAV-chloromethyl ketone (HELM PEPTIDE1{[COC(=O)CCC(=O)[*:2]].A.P.A.V.[ClC[*:1]]}$$$$V2.0; SMILES COC(=O)CCC(=O)N[C@@H](C)C(=O)N1CCC[C@H]1C(=O)N[C@@H](C)C(=O)N[C@H](C(=O)CCl)C(C)C) [MeOSuc-APAV-CH2Cl]
proteinase K inhibitory activity ([1]; FIG. 1): inactive at all concentrations tested
Ct (cycle threshold) ([1]; FIG. 1): 40

methoxysuccinyl-AAPF-chloromethyl ketone (HELM PEPTIDE1{[COC(=O)CCC(=O)[*:2]].A.A.P.F.[ClC[*:1]]}$$$$V2.0; SMILES COC(=O)CCC(=O)N[C@@H](C)C(=O)N[C@@H](C)C(=O)N1CCC[C@H]1C(=O)N[C@@H](Cc1ccccc1)C(=O)CCl) [MeOSuc-AAPF-CH2Cl]
lowest concentration in the stopped mixture with inhibitory activity for proteinase K ([1]; listed as MeOSuc-AlaAlaProPhe-CH2Cl): 0.05 mM
average Ct (cycle threshold) ([1]; FIG. 1, 0.05 mM inhibitor): about 30
lowest concentration capable of inhibiting proteinase K ([4]; 10 min incubation with proteinase K (100 μg/ml) before BSA): 0.125 mM
concentration capable of inhibiting proteinase K when incubated for a longer period prior to BSA ([4]; longer incubation with proteinase K before addition of BSA substrate): < 0.125 mM
inhibiting concentration relative to MeOSuc-AAPV-CH2Cl ([3]; FIG. 3, compare lanes at 0.5 mM and 0.25 mM): at least half that of MeOSuc-AAPV-CH2Cl

methoxysuccinyl-APAL-chloromethyl ketone (HELM PEPTIDE1{[COC(=O)CCC(=O)[*:2]].A.P.A.L.[ClC[*:1]]}$$$$V2.0; SMILES COC(=O)CCC(=O)N[C@@H](C)C(=O)N1CCC[C@H]1C(=O)N[C@@H](C)C(=O)N[C@@H](CC(C)C)C(=O)CCl) [MeOSuc-APAL-CH2Cl]
lowest concentration in the stopped mixture with inhibitory activity for proteinase K [1]: about 0.5 mM
